What was measured:
[1] = Photophysical characterization: absorbance, excitation/emission spectra, extinction coefficients, quantum yields; type: physicochemical
Experimental: Protein preparation: mFAP2a, mFAP2b, and mFAP10 were produced by large-scale protein purification and SEC purification, and dialyzed overnight into DPBS that was adjusted to pH 7.40 using NaOH.
Chromophore preparation: DFHBI (Lucerna) and DFHBI-1T (Lucerna) were dissolved to 20.0 mM in 100% DMSO, and diluted in DPBS (pH 7.40) to measure absorbances on a Jasco V-750 spectrophotometer at peak absorbance wavelengths (417 nm for DFHBI and 422 nm for DFHBI-1T). Following background subtraction of identical buffer without chromophore, Beer’s Law was used to calculate the molar chromophore concentrations of the stock solutions using previously reported extinction coefficients.
Preparation of protein–chromophore complexes: For quantum yield measurements, 1.00 μM, 836 nM, or 919 nM chromophore solutions in DPBS (pH 7.40) at 4.00 mL final volumes were prepared for the following eight conditions: DFHBI only, DFHBI-1T only, 43.5 µM 6xHis-mFAP10 with DFHBI, 43.5 µM 6xHis-mFAP10 with DFHBI-1T, 134 μM 6xHis-mFAP2a with DFHBI, 134 μM 6xHis-mFAP2a with DFHBI-1T, 206 μM 6xHis-mFAP2b with DFHBI, and 206 μM 6xHis-mFAP2b with DFHBI-1T.
Extinction coefficients: Absorbance spectra of protein–chromophore complexes were first measured with a Thermo Scientific BioMate 3S UV–Vis Spectrophotometer (1 nm interval, 800 nm min^−1). The extinction coefficients were then calculated using Beer’s Law:12 A=ε⋅b⋅c, where A is peak absorbance, ε is extinction coefficient, b is path length (1 cm), and c is concentration (1.00 μM, 836 nM, or 919 nM).
Relative quantum yield: A Perkin-Elmer LS-B Luminescence Spectrophotometer (10 nm bandwidth, 1 nm interval, 100 nm min^−1) was used. The fluorescence emission spectra of the protein–chromophore complexes (in DPBS, pH 7.40) and reference dye Acridine Yellow G (in methanol) were first obtained, and the quantum yield was then calculated using the equation[53]:13 ϕc=ϕr⋅1−10^−Ar(λex)/1−10^−Ac(λex)⋅∫Fc(λ)⋅dλ/∫Fr(λ)⋅dλ⋅nc2/nr2, where ϕ is quantum yield, A(λex) is absorbance at the excitation wavelength λex ( λex = 440 nm), F is fluorescence emission, n is refractive index of the solution (1.3350 for DPBS at pH 7.40 and 1.3284 for methanol), and the subscripts “c” and “r” refer to the protein–chromophore complex measured and the reference dye, respectively. […]
Absolute quantum yield: An integrating sphere instrument (Hamamatsu C9920-12) (6 nm excitation bandwidth, 1 nm interval) and a high-sensitivity photonic multi-channel analyzer (Hamamatsu C10027-01) were used to measure a light emission spectrum. Absolute quantum yields were measured for solutions of protein–chromophore complexes in DPBS (pH 7.40) in which ≥95% of the total chromophore was occupying the protein-binding pocket (Table 1). […]

[2] = Ca2+-responsive mFAP Ca2+ titrations; type: binding; details: Ca2+ titration with excess DFHBI
Summary of the method: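 Purified protein at 500 nM with 5.00 μM DFHBI titrated over eleven 10-fold CaCl2 dilutions plus a no-Ca2+ condition in high-salt Tev cleavage buffer; endpoint fluorescence at ex 484/em 508 nm, protein-free background subtracted. Triplicate means fit to a single-site isotherm, Hill coefficient 1, for Kd.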

B1: mFAP2b: mFAP2.5 with V67I, "b" for bright (protein)
chain: SRAAQLLPGTWQVTMTNEDGQTSQGQWHFQPRSPYTMDIVAQGTISDGRPIVGYGKATVKTPDTLDIDITYPSLGNIKAQGQITMDSPTQFKWDATTKGENDFHGRLTGTLQRQE
brighter fluorescence with DFHBI than DFHBI-1T [1]: ~ 30 fold
Ca2+-responsiveness / allostery between DFHBI and Ca2+ binding [2]: lack of Ca^2+-responsiveness
